Measured values as given in patent publication US5686294A.

Substrate: O=C(O)CC(=O)C(=O)O
Assay: purified protein, by the assay type
Settings: other: recombinant enzyme from Escherichia coli JM109 (pMDH1) (Example 6, Table 4)

B1: heat-resistant malate dehydrogenase (MAD) of Bacillus stearothermophilus ATCC 12016 gene, produced by Escherichia coli JM109 (pMDH1), amino acid sequence SEQ … (protein)
chain: MAMKRKKISVIGAGFTGATTAFLLAQKELGDVVLVDIPQLENPTKGKALDMLEASPVLGFDANIIGTSDYADTADSDIVVITAGIARKPGMSRDDLVTTNQKIMKQVTKEVVKYSPNCYIIVLTNPVDAMTYTVFKESGFPKNRVIGQSGVLDTARFRTFVAEELNISVKDVTGFVLGGHGDDMVPLVRYSYAGGIPLEKLIPKDRLDAIVERTRKGGGEIVNLLGNGSAYYAPAASLVEMVEAILKDQRRILPAIAYLEGEYGYEGIYLGVPTILGGNGIEKVIELELTEEEKARSPNPSNPLKMSCACWNSGEAKIRALPGFLSHSQ
  Km: 4.3 µM
